The supplement of paper PMC9233669
Variants at the floor of the assay were thinned out.

Key:
biotinyl-Phe-oxazolone = assay: self-aminoacylation, catalytic enhancement (BFO) (fold over background); higher = more active; k-Seq, kA / k0A0; sequences stand for … in GGGAAUGGAUCCACAUCUACGAAUUC…UUCACUGCAGACUUGACGAAGCUG
Method in brief: (§1)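 Working in 50 μL HEPES/NaCl/KCl/MgCl2/CaCl2 buffer with 5% acetonitrile at pH 6.9–7.0, mutagenized RNA pools (0.43 μM; 21-nt variable region) were reacted with 2–1250 μM of each biotinyl-aminoacyl-oxazolone for 90 minutes at room temperature. Streptavidin capture followed, with quantification by triplicate qPCR and Illumina sequencing. Catalytic enhancement is reported as median kA over the uncatalyzed rate, the low-activity peak of a bimodal Gaussian fit to the data.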

biotinyl-Ile-oxazolone = assay: self-aminoacylation, catalytic enhancement (BIO) (fold over background); higher = more active; k-Seq, kA / k0A0; sequences stand for … in GGGAAUGGAUCCACAUCUACGAAUUC…UUCACUGCAGACUUGACGAAGCUG
Method in brief: as §1

biotinyl-Met-oxazolone = assay: self-aminoacylation, catalytic enhancement (BMO) (fold over background); higher = more active; k-Seq, kA / k0A0; sequences stand for … in GGGAAUGGAUCCACAUCUACGAAUUC…UUCACUGCAGACUUGACGAAGCUG
Method in brief: as §1

biotinyl-Val-oxazolone = assay: self-aminoacylation, catalytic enhancement (BVO) (fold over background); higher = more active; k-Seq, kA / k0A0; sequences stand for … in GGGAAUGGAUCCACAUCUACGAAUUC…UUCACUGCAGACUUGACGAAGCUG
Method in brief: as §1

biotinyl-Leu-oxazolone = assay: self-aminoacylation, catalytic enhancement (BLO) (fold over background); higher = more active; k-Seq, kA / k0A0; sequences stand for … in GGGAAUGGAUCCACAUCUACGAAUUC…UUCACUGCAGACUUGACGAAGCUG
Method in brief: as §1

biotinyl-Trp-oxazolone = assay: self-aminoacylation, catalytic enhancement (BWO) (fold over background); higher = more active; k-Seq, kA / k0A0; sequences stand for … in GGGAAUGGAUCCACAUCUACGAAUUC…UUCACUGCAGACUUGACGAAGCUG
Method in brief: as §1

AUUGACCUGGGUCAUCGGGUG [Fam2.2 aminoacylation ribozyme variant]
self-aminoacylation (biotinyl-Phe-oxazolone): 107 | self-aminoacylation (biotinyl-Ile-oxazolone): 12.2 | self-aminoacylation (biotinyl-Met-oxazolone): 25.9 | self-aminoacylation (biotinyl-Val-oxazolone): 13.5 | self-aminoacylation (biotinyl-Leu-oxazolone): 29.6 | self-aminoacylation (biotinyl-Trp-oxazolone): 24.1

AUUCACCUAGAUCAUCUGGUG [Fam2.2 aminoacylation ribozyme variant]
self-aminoacylation (biotinyl-Phe-oxazolone): 14.8 | self-aminoacylation (biotinyl-Ile-oxazolone): 1.71 | self-aminoacylation (biotinyl-Met-oxazolone): 2.39 | self-aminoacylation (biotinyl-Val-oxazolone): 1.73 | self-aminoacylation (biotinyl-Leu-oxazolone): 2.82 | self-aminoacylation (biotinyl-Trp-oxazolone): 2.21

AUUACCCUGGACAUCGAGUGC [Fam2.1 aminoacylation ribozyme variant]
self-aminoacylation (biotinyl-Phe-oxazolone): 1.19 | self-aminoacylation (biotinyl-Ile-oxazolone): 0.87 | self-aminoacylation (biotinyl-Met-oxazolone): 0.807 | self-aminoacylation (biotinyl-Val-oxazolone): 0.852 | self-aminoacylation (biotinyl-Leu-oxazolone): 0.793 | self-aminoacylation (biotinyl-Trp-oxazolone): 0.573

CCACACUUCAACCAAUCGGCC [Fam1B.1 aminoacylation ribozyme variant]
self-aminoacylation (biotinyl-Phe-oxazolone): 4.99 | self-aminoacylation (biotinyl-Ile-oxazolone): 2.12 | self-aminoacylation (biotinyl-Met-oxazolone): 1.55 | self-aminoacylation (biotinyl-Val-oxazolone): 2 | self-aminoacylation (biotinyl-Leu-oxazolone): 1.72 | self-aminoacylation (biotinyl-Trp-oxazolone): 5.45

AUUACCCUGAUCCUCGAGUGA [Fam2.1 aminoacylation ribozyme variant]
self-aminoacylation (biotinyl-Phe-oxazolone): 8.63 | self-aminoacylation (biotinyl-Ile-oxazolone): 2.35 | self-aminoacylation (biotinyl-Met-oxazolone): 3.7 | self-aminoacylation (biotinyl-Val-oxazolone): 2.52 | self-aminoacylation (biotinyl-Leu-oxazolone): 3.73 | self-aminoacylation (biotinyl-Trp-oxazolone): 3.91

AUUACCGUGGUCAUCGAGAGA [Fam2.1 aminoacylation ribozyme variant]
self-aminoacylation (biotinyl-Phe-oxazolone): 0.92 | self-aminoacylation (biotinyl-Ile-oxazolone): 1.11 | self-aminoacylation (biotinyl-Met-oxazolone): 0.605 | self-aminoacylation (biotinyl-Val-oxazolone): 1.18 | self-aminoacylation (biotinyl-Leu-oxazolone): 0.723 | self-aminoacylation (biotinyl-Trp-oxazolone): 0.794

AUUCACCUGAGUCAUCGGGUG [Fam2.2 aminoacylation ribozyme variant]
self-aminoacylation (biotinyl-Phe-oxazolone): 35.9 | self-aminoacylation (biotinyl-Ile-oxazolone): 5.26 | self-aminoacylation (biotinyl-Met-oxazolone): 13 | self-aminoacylation (biotinyl-Val-oxazolone): 5.03 | self-aminoacylation (biotinyl-Leu-oxazolone): 15 | self-aminoacylation (biotinyl-Trp-oxazolone): 9.59

AUUACCCUGGGCAUCGAGUUA [Fam2.1 aminoacylation ribozyme variant]
self-aminoacylation (biotinyl-Phe-oxazolone): 1.15 | self-aminoacylation (biotinyl-Ile-oxazolone): 0.909 | self-aminoacylation (biotinyl-Met-oxazolone): 0.642 | self-aminoacylation (biotinyl-Val-oxazolone): 1.11 | self-aminoacylation (biotinyl-Leu-oxazolone): 0.805 | self-aminoacylation (biotinyl-Trp-oxazolone): 0.678

AUGCACCUAAGUCAUCGGGUG [Fam2.2 aminoacylation ribozyme variant]
self-aminoacylation (biotinyl-Phe-oxazolone): 58.2 | self-aminoacylation (biotinyl-Ile-oxazolone): 5.66 | self-aminoacylation (biotinyl-Met-oxazolone): 8.76 | self-aminoacylation (biotinyl-Val-oxazolone): 4.84 | self-aminoacylation (biotinyl-Leu-oxazolone): 10.5 | self-aminoacylation (biotinyl-Trp-oxazolone): 8.67

CCACCCUUCGAGCAAUCGGUC [Fam1B.1 aminoacylation ribozyme variant]
self-aminoacylation (biotinyl-Phe-oxazolone): 0.944 | self-aminoacylation (biotinyl-Ile-oxazolone): 1.49 | self-aminoacylation (biotinyl-Met-oxazolone): 1.94 | self-aminoacylation (biotinyl-Val-oxazolone): 2.06 | self-aminoacylation (biotinyl-Leu-oxazolone): 1.34 | self-aminoacylation (biotinyl-Trp-oxazolone): 2.58

AUUCACCUAGGUCCUGGGGUG [Fam2.2 aminoacylation ribozyme variant]
self-aminoacylation (biotinyl-Phe-oxazolone): 57.2 | self-aminoacylation (biotinyl-Ile-oxazolone): 4.6 | self-aminoacylation (biotinyl-Met-oxazolone): 7.35 | self-aminoacylation (biotinyl-Val-oxazolone): 4.05 | self-aminoacylation (biotinyl-Leu-oxazolone): 9.12 | self-aminoacylation (biotinyl-Trp-oxazolone): 7.11

AAGGUUGCUCAUAGUCGCAAG [Fam3.1 aminoacylation ribozyme variant]
self-aminoacylation (biotinyl-Phe-oxazolone): 4.12 | self-aminoacylation (biotinyl-Ile-oxazolone): 1.46 | self-aminoacylation (biotinyl-Met-oxazolone): 1.57 | self-aminoacylation (biotinyl-Val-oxazolone): 1.25 | self-aminoacylation (biotinyl-Leu-oxazolone): 1.63 | self-aminoacylation (biotinyl-Trp-oxazolone): 1.5

CUACUUCCAACAAUUGGUCUG [Fam1A.1 aminoacylation ribozyme variant]
self-aminoacylation (biotinyl-Phe-oxazolone): 0.55 | self-aminoacylation (biotinyl-Ile-oxazolone): 0.817 | self-aminoacylation (biotinyl-Met-oxazolone): 0.718 | self-aminoacylation (biotinyl-Val-oxazolone): 0.839 | self-aminoacylation (biotinyl-Leu-oxazolone): 0.776 | self-aminoacylation (biotinyl-Trp-oxazolone): 0.536

AUUCACCACGGUCAUCGGGUG [Fam2.2 aminoacylation ribozyme variant]
self-aminoacylation (biotinyl-Phe-oxazolone): 68.7 | self-aminoacylation (biotinyl-Ile-oxazolone): 5.71 | self-aminoacylation (biotinyl-Met-oxazolone): 9.37 | self-aminoacylation (biotinyl-Val-oxazolone): 6.13 | self-aminoacylation (biotinyl-Leu-oxazolone): 12.3 | self-aminoacylation (biotinyl-Trp-oxazolone): 10

CCACACUUCAAGCAGGCGGUC [Fam1B.1 aminoacylation ribozyme variant]
self-aminoacylation (biotinyl-Phe-oxazolone): 0.771 | self-aminoacylation (biotinyl-Ile-oxazolone): 1.86 | self-aminoacylation (biotinyl-Met-oxazolone): 1.24 | self-aminoacylation (biotinyl-Val-oxazolone): 1.54 | self-aminoacylation (biotinyl-Leu-oxazolone): 1.07 | self-aminoacylation (biotinyl-Trp-oxazolone): 1.77

ACUACCCUGGUCAUCGUGUGA [Fam2.1 aminoacylation ribozyme variant]
self-aminoacylation (biotinyl-Phe-oxazolone): 24.4 | self-aminoacylation (biotinyl-Ile-oxazolone): 1.58 | self-aminoacylation (biotinyl-Met-oxazolone): 4.14 | self-aminoacylation (biotinyl-Val-oxazolone): 2.33 | self-aminoacylation (biotinyl-Leu-oxazolone): 3.39 | self-aminoacylation (biotinyl-Trp-oxazolone): 3.83

AUUACCCGGGUCAUCGAGAGA [Fam2.1 aminoacylation ribozyme variant]
self-aminoacylation (biotinyl-Phe-oxazolone): 0.475 | self-aminoacylation (biotinyl-Ile-oxazolone): 1.22 | self-aminoacylation (biotinyl-Met-oxazolone): 1.05 | self-aminoacylation (biotinyl-Val-oxazolone): 1.22 | self-aminoacylation (biotinyl-Leu-oxazolone): 1.01 | self-aminoacylation (biotinyl-Trp-oxazolone): 1.24

AAUUUUGAUAAUAGUCGCAAG [Fam3.1 aminoacylation ribozyme variant]
self-aminoacylation (biotinyl-Phe-oxazolone): 2.09 | self-aminoacylation (biotinyl-Ile-oxazolone): 1.7 | self-aminoacylation (biotinyl-Met-oxazolone): 1.66 | self-aminoacylation (biotinyl-Val-oxazolone): 1.39 | self-aminoacylation (biotinyl-Leu-oxazolone): 1.64 | self-aminoacylation (biotinyl-Trp-oxazolone): 1.37

ACUACCUUGGUCAUCGAGUGA [Fam2.1 aminoacylation ribozyme variant]
self-aminoacylation (biotinyl-Phe-oxazolone): 10.5 | self-aminoacylation (biotinyl-Ile-oxazolone): 2.96 | self-aminoacylation (biotinyl-Met-oxazolone): 3.77 | self-aminoacylation (biotinyl-Val-oxazolone): 3.23 | self-aminoacylation (biotinyl-Leu-oxazolone): 4.02 | self-aminoacylation (biotinyl-Trp-oxazolone): 5.82

AUUACCCGGGUAAUCGAGUGA [Fam2.1 aminoacylation ribozyme variant]
self-aminoacylation (biotinyl-Phe-oxazolone): 81 | self-aminoacylation (biotinyl-Ile-oxazolone): 5.16 | self-aminoacylation (biotinyl-Met-oxazolone): 12.1 | self-aminoacylation (biotinyl-Val-oxazolone): 5.84 | self-aminoacylation (biotinyl-Leu-oxazolone): 13.9 | self-aminoacylation (biotinyl-Trp-oxazolone): 13.2

CUACUUCAAACAAUGGGUCUC [Fam1A.1 aminoacylation ribozyme variant]
self-aminoacylation (biotinyl-Phe-oxazolone): 0.715 | self-aminoacylation (biotinyl-Ile-oxazolone): 0.688 | self-aminoacylation (biotinyl-Met-oxazolone): 0.609 | self-aminoacylation (biotinyl-Val-oxazolone): 0.658 | self-aminoacylation (biotinyl-Leu-oxazolone): 0.569 | self-aminoacylation (biotinyl-Trp-oxazolone): 0.428

AUUACCCCGGUCAUCCAGUGA [Fam2.1 aminoacylation ribozyme variant]
self-aminoacylation (biotinyl-Phe-oxazolone): 31.4 | self-aminoacylation (biotinyl-Ile-oxazolone): 3.52 | self-aminoacylation (biotinyl-Met-oxazolone): 4.93 | self-aminoacylation (biotinyl-Val-oxazolone): 3.06 | self-aminoacylation (biotinyl-Leu-oxazolone): 5.88 | self-aminoacylation (biotinyl-Trp-oxazolone): 5.63

AUUCACGUAGGUCAUGGGGUG [Fam2.2 aminoacylation ribozyme variant]
self-aminoacylation (biotinyl-Phe-oxazolone): 24.6 | self-aminoacylation (biotinyl-Ile-oxazolone): 3.34 | self-aminoacylation (biotinyl-Met-oxazolone): 3.45 | self-aminoacylation (biotinyl-Val-oxazolone): 4.23 | self-aminoacylation (biotinyl-Leu-oxazolone): 5.48 | self-aminoacylation (biotinyl-Trp-oxazolone): 4.5

AUUAACCUGGUCAGCGAGUGA [Fam2.1 aminoacylation ribozyme variant]
self-aminoacylation (biotinyl-Phe-oxazolone): 19.5 | self-aminoacylation (biotinyl-Ile-oxazolone): 2.57 | self-aminoacylation (biotinyl-Met-oxazolone): 4.41 | self-aminoacylation (biotinyl-Val-oxazolone): 2.81 | self-aminoacylation (biotinyl-Leu-oxazolone): 4.19 | self-aminoacylation (biotinyl-Trp-oxazolone): 4.66

AUUCACCUAGGUCAUCAGCUG [Fam2.2 aminoacylation ribozyme variant]
self-aminoacylation (biotinyl-Phe-oxazolone): 0.631 | self-aminoacylation (biotinyl-Ile-oxazolone): 0.757 | self-aminoacylation (biotinyl-Met-oxazolone): 0.806 | self-aminoacylation (biotinyl-Val-oxazolone): 0.757 | self-aminoacylation (biotinyl-Leu-oxazolone): 0.804 | self-aminoacylation (biotinyl-Trp-oxazolone): 0.477

CCACUCUUCAAGCCAUCGGUC [Fam1B.1 aminoacylation ribozyme variant]
self-aminoacylation (biotinyl-Phe-oxazolone): 0.734 | self-aminoacylation (biotinyl-Ile-oxazolone): 1.09 | self-aminoacylation (biotinyl-Met-oxazolone): 1.1 | self-aminoacylation (biotinyl-Val-oxazolone): 1.21 | self-aminoacylation (biotinyl-Leu-oxazolone): 1.15 | self-aminoacylation (biotinyl-Trp-oxazolone): 0.953
